Measured values from article PMC10937712, “Natural variation in OsMYB8 confers diurnal floret opening time divergence between indica and japonica subspecies”.

T1: OsMYB8 (Oryza sativa, UniProt A0A0P0V5Q1 51-278)
T1 sequence: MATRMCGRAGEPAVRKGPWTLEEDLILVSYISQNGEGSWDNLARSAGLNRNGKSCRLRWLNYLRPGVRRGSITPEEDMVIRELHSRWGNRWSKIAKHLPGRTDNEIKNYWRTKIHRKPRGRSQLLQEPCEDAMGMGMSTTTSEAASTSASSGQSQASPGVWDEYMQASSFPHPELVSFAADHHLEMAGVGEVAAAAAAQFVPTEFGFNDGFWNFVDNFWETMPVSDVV

B1: JAR1-P1-probe (dsDNA)
DNA 1: AAAATAAATGACTTAGGAAAGAACCAAAACATCTTACATTATAGTATAAAGAAG
DNA 2: CTTCTTTATACTATAATGTAAGATGTTTTGGTTCTTTCCTAAGTCATTTATTTT
B2: JAR1-P3-probe (dsDNA)
DNA 1: CAGTGTACCTAGTGATGTACCCGCCGAATACGTACGCGTGTATGCATGGGTAGAGA
DNA 2: TCTCTACCCATGCATACACGCGTACGTATTCGGCGGGTACATCACTAGGTACACTG

Biological target: T1, OsMYB8
Assay: EMSA; Beyotime chemiluminescent EMSA kit binding buffer (composition, salt, pH not stated), 20 min, room temperature, 5% native PAGE; 5x and 20x cold competitor
Settings: protein: recombinant; tags: N-terminal GST (pGEX-4T1); label: biotin; blunt

Binder | binding result
B1 | binds
B2 | binds
